LD50 (dose data for one substance are collected here from US20220008570A1.

For this assay, the target named is human CD33 (human) (UniProt P20138). Kind of assay: cell-based or functional assay.
Sequence of UniProt P20138 (P20138 18-364 limits assumed): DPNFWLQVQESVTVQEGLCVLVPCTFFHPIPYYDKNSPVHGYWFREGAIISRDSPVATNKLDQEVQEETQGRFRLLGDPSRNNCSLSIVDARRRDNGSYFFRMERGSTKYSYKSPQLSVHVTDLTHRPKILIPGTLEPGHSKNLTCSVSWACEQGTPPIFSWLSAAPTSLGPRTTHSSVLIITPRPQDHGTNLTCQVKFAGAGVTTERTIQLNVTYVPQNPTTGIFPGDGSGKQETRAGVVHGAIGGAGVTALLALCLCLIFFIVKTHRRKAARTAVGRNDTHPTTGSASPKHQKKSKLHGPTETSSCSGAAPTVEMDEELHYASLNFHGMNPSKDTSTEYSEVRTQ

Take “Lintuzumab conjugated with Actinium-225 (Ac225) (antibody)”: the LD50 (dose at which 50% of the cells were killed), cytotoxicity on HL60 leukemia cell suspensions stood at 8 pCi per mL.
